B1: CAMK2A (parent)
chain: ILLVGYPPFWDEDQHRLYKQIKAG

Variants of: B1
Assay: protein stability index of a GFP-peptide fusion (GPS, HEK-293T) (PSI 1-6); higher = more stable
Settings: c terminus: a fixed tail appended
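Note: lentivirally expressed fusions sorted by FACS into six bins by GFP to DsRed ratio, PSI derived from sequencing read proportions per bin multiplied by bin number.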

Protein stability index of substitutions, site by site:
D11: G 1.55, C 2.48, M 2.52, A 2.34, K 2.46, H 2.29, F 3.09, S 2.62, E 3.38, N 2.59, L 2.39, Y 1.61, I 3.45, T 1.85, R 1.21, V 2.18, P 2.35, W 2.44
K19: I 2.67, H 1.38, G 3.31, W 2.65, P 1.73, R 1.36, V 2.9, E 1.87, N 3.09, S 2.63, M 3.5, Q 2.79, Y 3.14, T 1.72, D 2.82, A 1.65, F 2.66
L17: P 2.03, A 1.62, Y 2.38, N 1.31, V 2.21, G 1.58, T 2.14, Q 2.3, W 2.09, S 1.8, D 2.06, M 2.47, I 2.1, E 2.09, R 2.12, H 1.75, C 1.19, F 2.12, K 1.74
Q20: G 2.1, F 2.69, A 1.78, E 2.18, D 1.9, C 1.94
H15: D 2.13, T 2.8, K 1.24, F 2.5, E 2.14, G 2.21, L 2.16, W 2.08, V 2.84, Q 2.51, P 2.6, C 3.07, N 2.2, I 2.31, S 2.89, A 2.55
R16: I 1.62, L 2.27, D 2.63, A 2.61, C 2.16, K 1.57, M 2.07, V 2.67, G 1.64, N 2.27, T 1.29, E 2.2, H 2.12, W 1.62, Q 1.84, Y 3.24, S 2.5, F 2.2, P 1.54
W10: Y 2.05, V 2.05, S 2.45, T 2.34, R 1.52
D13: R 2.19, L 3.98, T 2.2, F 3.02, P 2.24, S 2.06, V 2.54, E 1.76, I 2.18, Q 2.42, A 3.24, C 2.36, K 3.5, M 3.08, H 2.2
Y18: Q 1.51, A 2.09, G 2.79, D 1.97, S 1.95, M 2.16, I 2.21, T 3.2, F 1.4, N 2.05, H 1.89, P 1.71, K 2.31, E 2.38, V 1.25, L 2.48, R 2.45, W 2.45, C 1.73
E12: V 2.56, F 2.03, W 2.32, R 2.23, Q 3.3, H 2.29, A 1.49, L 1.95, Y 2.57, I 2.76, T 1.96, N 1.42, P 2.84, D 2.27, M 3.3, K 1.92
Q14: S 2.59, K 1.68, R 2.78, A 2.65, Y 2.54, H 2.67, N 2.33, G 3.47, F 2.52, I 2.05, E 2.01, L 2.35, W 1.57, P 3.6, V 2.89, T 2.98, D 2.32

Source: the supplement of paper PMC10567573
